Laboratory results: patent US20180298374A1 (Merck KGaA, published 2018)
Like-named read-outs stand apart in the source and are kept apart here.

How the values were obtained:
huEGFR [1] = biological target: T1, huEGFR (human, UniProt P00533 25-645, limits assumed, phycoerythrin conjugate (LYNX rapid RPE kit))
T1 construct: also called EGFR-PE; EGFR-phycoerythrin

huEGFR [2] = biological target: T1, huEGFR; remark: listed apart in the source

Kd (huEGFR [1]): 113 nM
Kd (huEGFR [2]): 0.34 nM
B1: matuzumab (antibody, V domains shown)
VH: QVQLVQSGAEVKKPGASVKVSCKASGYTFTSHWMHWVRQAPGQGLEWIGEFNPSNGRTNYNEKFKSKATMTVDTSTNTAYMELSSLRSEDTAVYYCASRDYDYDGRYFDYWGQGTLVTVSS
VL: DIQMTQSPSSLSASVGDRVTITCSASSSVTYMYWYQQKPGKAPKLLIYDTSNLASGVPSRFSGSGSGTDYTFTISSLQPEDIATYYCQQWSSHIFTFGQGTKVEIKG
